{"source": "the nanobody polyreactivity screen of Harvey et al. (2022)", "data": [{"experiment": "yeast display, Sf9 membrane polyspecificity reagent, FACS + sequencing; frameworks hold sequencing errors", "how_it_was_run": "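Using colony PCR, genes from sorted yeast display clones were amplified, then sequenced on MiSeq at 2 × 250 and filtered by CDR length. The clones had been stained with 10% biotinylated, detergent-solubilized Sf9 membrane reagent for 1 hour at 4 °C and sorted by FACS into low and high (top ~1%) gates on anti-HA and streptavidin fluorescence. Polyreactivity labels come from the gate of origin.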", "values": [{"sequence": "QVQIVESGGGLVQAGGSLRLSCAASGITFRFYALGWYRQATGKERELVAAISWSGGSTNYADSVKGRFTISRDNAKNTVYLQMNSLKPEDTAVYYCNVVGKYYSGGTYEYWGQGTQVTVSS", "polyreactivity (PSR sort gate)": "high polyreactivity"}, {"sequence": "QVQIVESGGGLVQAGGSLRLSCAASGLIFKYYAMGWYRQAPGKERELVATITRGGGSTYYADSVKGRFTISRDNAKNTVYLQMNSLKPEDTAVYYCAADYWYVYPRYNPGDYWGQGTQVTVSS", "polyreactivity (PSR sort gate)": "high polyreactivity"}, {"sequence": "QVQIVESGGGLVQAGGSLRLSCAASGLTFEWYTMGWYRQAPGKERELVAVITVSGSSTYYADSVKGRFTISRDNAKNTVYLQMNSLKPEDTAVYYCNADWSFYSYTLYDYWGQGTQVTVSS", "polyreactivity (PSR sort gate)": "low polyreactivity"}, {"sequence": "QVQIVESGGGLVQAGGSLRLSCAASGNTFYVNVMGWYRQAPGKEREFVAAISTRGVSTSYADSVKGRFTISRDNAKNTVYLQMNSLKPEDTAVYYCAASFRRPQPKGTTYGYWGQGTQVTVSS", "polyreactivity (PSR sort gate)": "high polyreactivity"}, {"sequence": "QVQIVESGGGLVQAGGSLRLSCAASGRIFDYYAMGWYRQAPGKERELVADITSGGSTYYADSVKGRFTISRDNAKNTVYLQMNSLKPEDTAVYYCNADGPGSYIWYYFVYTTPEYDYWGQGTQVTVSS", "polyreactivity (PSR sort gate)": "low polyreactivity"}, {"sequence": "QVQIVESGGGLVQAGGSLRLSCAASGRIFYRYDMGWYRQAPGKERELVAVISGGGTYYADSVKGRFTISRDNAKNTVYLQMNSLKPEDTAVYYCAADDGVSLVSPYYGGYDYWGQGTQVTVSS", "polyreactivity (PSR sort gate)": "low polyreactivity"}, {"sequence": "QVQIVESGGGLVQAGGSLRLSCAASGRIIRINAMGWSRQAPGKERELVAAITRGGTTYADSVKGRFTISRDNAKNTVYLQMNSLKPEDTAVYYCNARTGRSPTGFRYWGQGTQVTVSS", "polyreactivity (PSR sort gate)": "high polyreactivity"}, {"sequence": "QVQIVESGGGLVQAGGSLRLSCAASGRTFAYYAMGWYRQAPGKERELVATISGSGGTTRYADSVKGRFTISRDNAKNTVYLQMNSLKPEDTAVYYCAARYASGRRGEYWGQGTQVTVSS", "polyreactivity (PSR sort gate)": "high polyreactivity"}, {"sequence": "QVQIVESGGGLVQAGGSLRLSCAASGRTFAYYSMGWYRPAPGKEREFVAAISRSGGSTYYADSVKGRFTISRDNAKNTVYLQMNSLKPEDTAVYYCNARYIWKQYRYDYWGQGTQVTVSS", "polyreactivity (PSR sort gate)": "high polyreactivity"}, {"sequence": "QVQIVESGGGLVQAGGSLRLSCAASGRTFNRNAMGWYRQAPGKERELVAAISRGGGGTFYADSVKGRFTISRDNAKNTVYLQMNSLKPEDTAVYYCAKTLRGWHTIITDYDYWGQGTQVTVSS", "polyreactivity (PSR sort gate)": "low polyreactivity"}, {"sequence": "QVQIVESGGGLVQAGGSLRLSCAASGRTFYSYAMGWYRQAPGKERELVAAIRWTGVRTYYADSVKGRFTISRDNAKNTVYLEINSLKPEDTAVYYCAVFRSSGKGYRGPRDYWGQGTQVTVSS", "polyreactivity (PSR sort gate)": "high polyreactivity"}, {"sequence": "QVQIVESGGGLVQAGGSLRLSCAASGRTLDSNAIGWYRKATRKERVLVAAISSAGSTNYADSVKGRFTISRDNAKNTVYLQMNSLKPEDTAVYYCAADLIGSHDYSGQGTQVTVSS", "polyreactivity (PSR sort gate)": "low polyreactivity"}, {"sequence": "QVQIVESGGGLVQAGGSLRLSCAASGRTTSTNAMGWYRQAPGKERELVASISWRGGSTYYADSVKGRFTISRDNAKNTVYLEMNCLKPEDTAVYYCAASWPRWWRFGYWGQGTQVTVSS", "polyreactivity (PSR sort gate)": "low polyreactivity"}, {"sequence": "QVQIVESGGGLVQAGGSLRLSCAASGSIFDSNAMGWYRQAPGKERELVASITSDGDTYYADSVKGRFTISRDNAKNTVYLQMNSVKPEDTAVYYGAAYVPYSGLDYWGQGTQVTVSS", "polyreactivity (PSR sort gate)": "low polyreactivity"}, {"sequence": "QVQIVESGGGLVQAGGSLRLSCAASGSIFGTNTMGWYRPAPGKEWEFVAAIRLSDSSTYYADSVKWRFTISRDNAKNTVYLQMNSLKPEDTEVYYCAVDYRAYHYYLYDYWGQGTQVTVSS", "polyreactivity (PSR sort gate)": "low polyreactivity"}, {"sequence": "QVQIVESGGGLVQAGGSLRLSCAASGSIFLKYAMGWYRQAPGKERELVATFSRGGSTNYADSVKGRFTISRDNAKITVYFQMNSLKPEDTAVYNCARRRTYPPGRYYYWGQGTQVTVSS", "polyreactivity (PSR sort gate)": "high polyreactivity"}, {"sequence": "QVQIVESGGGLVQAGGSLRLSCAASGSIFPAYAMGWYRQAPGKEREFVAAISGTGGITYYADSVKGRFTISRDNAKNTVYLQMNSLKPEDTAVYFCAAPVYNRDKHDYDYWGQGTQVTVSS", "polyreactivity (PSR sort gate)": "low polyreactivity"}, {"sequence": "QVQIVESGGGLVQAGGSLRLSCAASGSIFRKNAMGWYRQAPGKERELVAAITRRGGSTYYADSVKARFTISRDNAKNTVYLQMNSLKPEDTAVYYCAATGGAPYKIEWGQGTQVTVSS", "polyreactivity (PSR sort gate)": "low polyreactivity"}, {"sequence": "QVQIVESGGGLVQAGGSLRLSCAASGSIFTPYAMGWYRQATGKERELVADIDASGGGTYADSVKGRFTISRDNANNTVYLQMNSLKPEDTAVYYCNTDPYSSAWYNYDYWGQGTQVTVSS", "polyreactivity (PSR sort gate)": "low polyreactivity"}, {"sequence": "QVQIVESGGGLVQAGGSLRLSCAASGSILYYYAMGWYRQAPGKERELVATITSGGTTNYADSVKGRFTISRDNAKNTFYLQMNRLKPEDTAVYYCATEEVYGQGNYWGQGTQVTVSS", "polyreactivity (PSR sort gate)": "low polyreactivity"}, {"sequence": "QVQIVESGGGLVQAGGSLRLSCAASGSTFGKYAMGWYRQAPGKERELVAAITRRTGSTYYADSVKGRFTISRDNAKNTVYLQMNSLKPEDTAVYYCAARLPQYRYDYWGQGTQVTVSS", "polyreactivity (PSR sort gate)": "high polyreactivity"}, {"sequence": "QVQIVESGGGLVQAGGSLRLSCAASGSTFRLYVMGWYRQAPGKERELVARISSRGGSTYYADSVKGRFTISRDNAQNTVYLQMTSLKPEDTAVYYCAKDVDLDTWKYDYWGQGTKVTVSS", "polyreactivity (PSR sort gate)": "low polyreactivity"}, {"sequence": "QVQIVESGGGLVQAGGSLRLSCAASGSTFTWYAMGWYRQAPGKERELVAAIRYSGDSTYYADSVKGRFTISRDNAKNTVYLQMNSLKPEDTAVYYCAAQYYPQYRRRMNYWGQGTQVTVSS", "polyreactivity (PSR sort gate)": "high polyreactivity"}, {"sequence": "QVQIVESGGGLVQAGGSLRLSCAASGSTFYRNAMGWYRQAPGKEREFVATISWNGGNTYYADSVKGRFTISRDNAKNTVYLQMNSVKPEDTAVYYCDARVKYRTSGGTVVSYDYWGQGTQVTVSS", "polyreactivity (PSR sort gate)": "high polyreactivity"}, {"sequence": "QVQIVESGGGLVQAGGSLRLSCADSGIIFYYNAMGWYRQAPGKERELVAAIDDRGDSTYYADSVKGRFTISRDNAKNTVYLQMNSMKPEDTAVYYCAARDRYLYFDAMDYWGQGTLVTVSS", "polyreactivity (PSR sort gate)": "low polyreactivity"}, {"sequence": "QVQIVESGGGLVQAGGSLRLSCAPSGRIITRKTMGWYRQAPGKEREFVAAISQSGGRTYYADSVKGRFTISRDNAKNTVYLQMNSLKPEDTAVYYCNAQFARSSGFNYWGQGTQVTVSS", "polyreactivity (PSR sort gate)": "high polyreactivity"}, {"sequence": "QVQIVESGGGLVQAGGSLRLSCDASGSILLWNTMGWYRQAPGKERELVADSSLSASSTYYADSVKGRFTISRDNAQNTVYLELNSLKPEDTAVYFCAADEYSPDYGQGYDYWGEGTQVTVSS", "polyreactivity (PSR sort gate)": "low polyreactivity"}, {"sequence": "QVQIVESGGGLVQAGGSLRLSCGASGLSFYYYAMGWYRQAPGKERELVASISTGGNTYYADSVKGRFTISRVNAKNTVYLQMNSLNPEDTAVYYCAAGLYSWSGYASYNSAYGYWGQGTQVTVSS", "polyreactivity (PSR sort gate)": "low polyreactivity"}, {"sequence": "QVQIVESGGGLVQAGGSLRLSCPASGSIFPQYAMGWSRQAPRKERELVAGISGSGGGTYYADSVKGRITILRDNAKNNVFLQMNSVKPEETAVYYCNALYAPYGWFYGLYDYGGQGTQVTVSS", "polyreactivity (PSR sort gate)": "low polyreactivity"}, {"sequence": "QVQIVESGGGLVQAGGSLRLSWAASGSNLDFNAMGWYRQAHGKERELVAAINNSGGSTYYADSLKGRFTISRDTAKKTVYLQMNRLKPEDTAVYYCARYAFWKRAYWGQGTQETVSS", "polyreactivity (PSR sort gate)": "low polyreactivity"}, {"sequence": "QVQIVESGGGLVQAGGSLRVSCAASGSILSKYDMGWYRPAPGKERELVAVISSRGGSTYYADSVKGRFTISRDNAKNTVYLQMNSLKPEDTAVYYCNARSGRGYGYWGQGTQVTVSS", "polyreactivity (PSR sort gate)": "high polyreactivity"}, {"sequence": "QVQIVESGGGLVQAGGSLRVTCAASGSIFPPKAMGWYRQAPGKERELLADISGSGRTYYADSVKGRFTISRDNAKNTVYLQMNSLNPEDTAVYYCAARQQRRPTTRVFGYWGQGTQVTVSS", "polyreactivity (PSR sort gate)": "high polyreactivity"}, {"sequence": "QVQIVESGGGLVQAGGSRRFSCAASGGTFNWNAMGWYRQAPGKERELFAAINRTGGSTYYADSVKARFTISRDNAMNTVYLQMNSLKPEDTAVYYCAKRYYRFYLGWPPEDSWGQGTQVSVSS", "polyreactivity (PSR sort gate)": "low polyreactivity"}, {"sequence": "QVQIVESGGGLVQAGRSLRLSCAASGLIFRRYTMGWYRQAPGKERELVAAIRNSGSSTDYADSVKGRFTISRDNAKNTVYLQMNSLKPEYTAVYYCAKRSACKLTYDSWGQGTQVTGSS", "polyreactivity (PSR sort gate)": "low polyreactivity"}, {"sequence": "QVQIVESGGGLVQPGGSLRLSCAASGITFYKYAMGWYRPAPGKERELLAAISKSGGRTYYADSVKGRFTISRDNAKNTVYLQMNSLKPEDTAVYYCNAQPNYAYHGEDDYWGQGNQVTVSS", "polyreactivity (PSR sort gate)": "high polyreactivity"}, {"sequence": "QVQIVESGGGLVQPGGSLRLSCAASGSTFTRNAMGWYRQAPGKERELVAAISFSGGSTYYADSVKGRFTISRDTAKNTVYLQMNSLKPEDTAVYYCAAEEGRVFSGGYDYWGQGTQVTVSS", "polyreactivity (PSR sort gate)": "high polyreactivity"}, {"sequence": "QVQIVESGGGVVQAGGSLRLICAASGSTFLVYAMGWYRQAPGKERELVAAISGRGGRTYYADSVKGRFTISRDIAKNTVYLQMNSLKPEDTAVYYCAKVSKYGAYDYWGQGTQVTVSS", "polyreactivity (PSR sort gate)": "high polyreactivity"}, {"sequence": "QVQIVESGGRLVQAGGSLRLSCAASGLTFRRYAMGWYRQAPGKERELVASITYRGGSTYYADSVKARFTISRDNAKNTVYLQINSLKPEDTAVYHCNAKGQRNKRCRGYWGQGSQVTVSS", "polyreactivity (PSR sort gate)": "high polyreactivity"}, {"sequence": "QVQIVESGGVLVQAGGSLRLSCAASGRIFGSYAMGWYRQAPGKERELVAGIRSVGSTNYADSVKGRFTISRDNEKNTVYLQMNSLKPEDTAVYYCAACLWHPTFGYWGQGTQVTVSS", "polyreactivity (PSR sort gate)": "low polyreactivity"}, {"sequence": "QVQIVESGRGLVQAGGSLRLSCAASGSIFKKYAMGWYRQAPGKERELVAAISSRGGRTYYADSVKGRFTISRDNAKNTVYLQMNSLKPEDTAVYYCNTDISQPGAYDYWGQGTQVTVSS", "polyreactivity (PSR sort gate)": "high polyreactivity"}, {"sequence": "QVQIVESWGGLVQAGGSLRLSCAASGSTIYTYPMGWYRQAPGKERELFAAISYRGGSTYYADSVKVRYSISRDNAKNTVYLQMKSLKPEDTAVYYCNVDGVVVGTKRGGYDYWGQGTQVTVSS", "polyreactivity (PSR sort gate)": "low polyreactivity"}, {"sequence": "QVQLAESGACLVQAGGRLRLSCAASGRIFSFYAMGWYRQAPGKERELVITSGGDTNYADSVKGRFTISRDNAKNSVYLQMNSLKPEDTAVYYCNAEGDRSQPYNFDYWGQGTQVTVSS", "polyreactivity (PSR sort gate)": "low polyreactivity"}, {"sequence": "QVQLAESGGGLVQAGGSLRLSCAASGLTFNAYAMGWYRQAPGKERELVADITTSDGSTFYADSVKGRFTISRDNAKNTVYLQMNRLKPEDTAVYYCNADAYGWYSGPWFKWLLWYDYWGQGTQVTVSS", "polyreactivity (PSR sort gate)": "low polyreactivity"}]}]}
